In patent publication US20260184782A1 (TWIST BIOSCIENCE, published 2026):
Positions count from the first letter of the chain named.

T1: human TIGIT-Fc (human, UniProt Q495A1 22-141, limits assumed)
T1 construct: not shown: Fc; not described
T1 sequence (looked up): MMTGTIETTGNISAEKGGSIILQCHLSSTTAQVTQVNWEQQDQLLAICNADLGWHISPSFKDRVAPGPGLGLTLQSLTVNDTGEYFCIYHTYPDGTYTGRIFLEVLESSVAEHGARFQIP

B1: TIGIT-SC174 (Fc fusion)
VHH: EVQLVESGGGLVQPGGSLRLSCAASGFLFDSYAMGWFRQAPGKEREFVAAISWSGGSTYYADSVKGRFTISADNSKNTAYLQMNSLKPEDTAVYYCTTDALRFLEWPWWGQGTLVTVSS
notes: VHH-Fc
B2: TIGIT-SC143 (Fc fusion)
VHH: EVQLVESGGGLVQPGGSLRLSCAASGFTLGYYVMGWFRQAPGKEREFVAAISASGTLRAYADSVEGRFTISADNSKNTAYLQMNSLKPEDTAVYYCARAELGYSYGSVDGYWGQGTLVTVSS
notes: VHH-Fc
B3: TIGIT-SC161 (Fc fusion)
VHH: EVQLVESGGGLVQPGGSLRLSCAASGFTFSPSWMGWFRQAPGKEREWVASVLRGGYTWYADSVKGRFTISADNSKNTAYLQMNSLKPEDTAVYYCTTDRAIGVRPLFDHWGQGTLVTVSS
notes: VHH-Fc
B4: TIGIT-SC148 (Fc fusion)
VHH: EVQLVESGGGLVQPGGSLRLSCAASGDIGSINAMGWFRQAPGKEREFVAGIWRSGNLKAYADSVKGRFTISADNSKNTAYLQMSSLKPEDTAVYYCARGNIVVVPAAFVIWFDPWGQGTLVTVSS
notes: VHH-Fc
B5: TIGIT-SC142 (Fc fusion)
VHH: EVQLVESGGGLVQPGGSLRLSCAASGFSFDRWAMGWFRQAPGKEREFVAAIGWSGNLKAYADSVKGRFTISADNSKNTAYLQMNSLKPEDTAVYYCASGDGYSMDYFDPWGQGTLVTVSS
notes: VHH-Fc
B6: TIGIT-SC139 (Fc fusion)
VHH: EVQLVESGGGLVQPGGSLRLSCAASGFTLENNMMGWFRQAPGKEREFVAAISRSGTLKAYADSVKGRFTISADNSKNTAYLRMNSLKPEDTAVYYCAGLTSGGAFSYYWGQGTLVTVSS
notes: VHH-Fc
B7: TIGIT-SC186 (Fc fusion)
VHH: EVQLVESGGGLVQPGGSLRLSCAASGNTFSGGFMGWFRQAPGKEREYVASVLRGGYTWYADSVKGRFTISADNSKNTTYLQMNSLKPEDTAVYYCTTDRGYNWNYDWGQGTLVTVSS
notes: VHH-Fc
B8: TIGIT-SC145 (Fc fusion)
VHH: EVQLVESGGGLVQPGGSLRLSCAASGNTFSGGFTLGYYVMGWFRQAPGKEREFVAAISRSGTLKAYADGVKGRFTISADNSKNTAYLQMNSLKPEDTAVYYCARVEAYGDPLGYWGQGTLVTVSS
notes: VHH-Fc
B9: TIGIT-SC167 (Fc fusion)
VHH: EVQLVESGGGLVQPGGSLRLSCAASGRTFSFMGWFRQAPGKEREWVASVLRGGYTWYADSVKGRFTISADNSKNTAYLQMNSLKPEDTAVYYCAREGSGYASDYWGQGTLVTVSS
notes: VHH-Fc
B10: TIGIT-SC180 (Fc fusion)
VHH: EVQLVESGGGLVQPGGSLRLSCAASGFTLNDYAMGWFRQAPGKERELVAWIARYDGSTLYADSVKGRFTISADNSKNTAYLQMNSLKPEDTAVYYCASEVASGETDYWGQGTLVTVSS
notes: VHH-Fc
B11: TIGIT-SC199 (Fc fusion)
VHH: EVQLVESGGGLVQPGGSLRLSCAASGFSSAQYAMGWFRQAPGKERELVASIDSEGRTNYADSVKGRFTISADNSKNTAYLQMNSLKPEDTAVYYCTRDGGFDPWGQGTLVTVSS
notes: VHH-Fc
B12: TIGIT-SC158 (Fc fusion)
VHH: EVQLVESGGGLVQPGGSLRLSCAASGFTFSPSWMGWFRQAPGKEREWVASVLRGGYTWYADSVKGRFTISADNSKNTAYLQMNSLKPEDTAVYYCAREGRSSSPWFDPWGQGTLVTVSS
notes: VHH-Fc
B13: TIGIT-SC159 (Fc fusion)
VHH: B12 VHH with S30D, P31R
notes: VHH-Fc
B14: TIGIT-SC154 (Fc fusion)
VHH: EVQLVESGGGLVQPGGSLRLSCAASGFAFSSDWMGWFRQAPGKEREWVASVLRGGYTWYADSVKGRFTISADNSKNTAYLQMNSLKPEDTAVYYCAGDYRGFEMAFDPWGQGTLVTVSS
notes: VHH-Fc
B15: TIGIT-SC155 (Fc fusion)
VHH: B14 VHH with F27N, A28T, S31G, D32G, W33F
notes: VHH-Fc
B16: TIGIT-SC202 (Fc fusion)
VHH: EVQLVESGGGLVQPGGSLRLSCAASGFTFSPSWMGWFRQAPGKEREWVASVLRGGYTWYADSVKGRFTISADNSKNTAYLQMNSLKPEDTAVYYCTTDGGYSGIVGFAWGQGTLVTVSS
notes: VHH-Fc
B17: TIGIT-SC160 (Fc fusion)
VHH: B12 VHH with F27N, P31G, S32G, W33F
notes: VHH-Fc
B18: TIGIT-SC141 (Fc fusion)
VHH: EVQLVESGGGLVQPGGSLRLSCAASGNAFSSSVMGWFRQAPGKEREFVAGIWRSGSLKAYADSVKGRFTISADNSKNTAYLQMNSLRPEDTAVYYCARAYVGMTTVTFDHWGQGTLVTVSS
notes: VHH-Fc
B19: TIGIT-SC144 (Fc fusion)
VHH: EVQLVESGGGLVQPGGSLRLSCAASGFTLENNMMGWFRQAPGKEREFVAAISPSGTLRAYADSVKGRFTISADNSKNTAYLQMNSLKPEDTAVYYCAGIHDSGVPLGNWGQGTLVTVSS
notes: VHH-Fc
B20: TIGIT-SC182 (Fc fusion)
VHH: EVQLVESGGGLVQPGGSLRLSCAASGFTFSSSSMGWFRQAPGKEREFVAAINWSGGSTSYADSVKGRFTISADNSKNTAYLQMNSPKPEDTAVYYCAKDRSYSFDYWGQGTLVTVSS
notes: VHH-Fc
B21: TIGIT-SC190 (Fc fusion)
VHH: EVQLVESGGGLVQPGGSLRLSCAASGFTFDRSWMGWFRQAPGKEREWVASVLRGGYTWYADSVKGRFTISADNSKNTAYLQMNSLKPEDTAVYYCVTDVGAPDYWGQGTLVTVSS
notes: VHH-Fc
B22: TIGIT-SC169 (Fc fusion)
VHH: EVQLVESGGGLVQPGGSLRLSCAASGFTLNDYAMGWFRQAPGKERELVAWIARYDGSTLYADSVKGRFTISADNSKNTAYLQMNSLKPEDTAVYYCTTELRWELQQPDYWGQGTLVTVSS
notes: VHH-Fc
B23: TIGIT-SC140 (Fc fusion)
VHH: EVQLVESGGGLVQPGGSLRLSCAASGNTFSGGFTFDRSWMGWFRQAPGKEREWVASVLRGGYTWYADSVKGRFTISADNSKNTAYLQMNSLKPEDTAVYYCAGDRYYDFWSGPNSGDYWGQGTLVTVSS
notes: VHH-Fc
B24: TIGIT-SC181 (Fc fusion)
VHH: EVQLVESGGGLVQPGGSLRLSCAASGFTLSSNWMGWFRQAPGKEREFVASVLRGGYTWYADSVKGRFTISADNSKNTAYLQMNSLKPEDTAVYYCARDAYYYGLWGQGTLVTVSS
notes: VHH-Fc
B25: TIGIT-SC179 (Fc fusion)
VHH: EVQLVESGGGLVQPGGSLRLSCAASGFTFSPSWMGWFRQAPGKEREWVASVLRGGYTWYADSVKGRFTISADNSKNTAYLQMNSLKPEDTAVYYCASEVASGETDYWGQGTLVTVSS
notes: VHH-Fc
B26: TIGIT-SC163 (Fc fusion)
VHH: B25 VHH with S30D, P31R, S97T, E98D, V99K, A100R, S101G, G102P, E103H, T104P
notes: VHH-Fc
B27: TIGIT-SC178 (Fc fusion)
VHH: B25 VHH with F29L
notes: VHH-Fc
B28: TIGIT-SC184 (Fc fusion)
VHH: B7 VHH with N27F, G31P, G32S, F33W, Y47W, T78A
notes: VHH-Fc
B29: TIGIT-SC166 (Fc fusion)
VHH: B25 VHH with S30D, P31R, S97R, V99G, A100S, S101G, G102Y, E103A, T104S
notes: VHH-Fc
B30: TIGIT-SC168 (Fc fusion)
VHH: EVQLVESGGGLVQPGGSLRLSCAASGFTFDRSWMGWFRQAPGKEREWVASVLRGGYAWYADSVKGRFTISADNSKNTAYLQMSSLKPEDTAVYYCAREGSGYASDYWGQGTLVTVSS
notes: VHH-Fc
B31: TIGIT-SC176 (Fc fusion)
VHH: EVQLVESGGGLVQPGGSLRLSCAASGFTFSPSWMGWFRQAPGKEREWVASVLRGGYTWYADSVKGRFTISADNSKNTAYLQMNSLKPEDTAVYYCVHEDSVAAHFDFWGQGTLVTVSS
notes: VHH-Fc
B32: TIGIT-SC177 (Fc fusion)
VHH: B31 VHH with V96A, H97T, E98D, D99R, S100G, V101P, A103M, H104V, D106N, F107L
notes: VHH-Fc
B33: TIGIT-SC146 (Fc fusion)
VHH: EVQLVESGGGLVQPGGGLRLSCAASGFTLENNMMGWFRQAPGKEREFVAAISASGTLRAYADSVKGRFTISADNSKNTAYLQMNSLKPEDTAVYYCAKGGQAGPMAFYFDYWGQGTLVTVSS
notes: VHH-Fc
B34: TIGIT-SC192 (Fc fusion)
VHH: EVQLVESGGGLVQPGGSLRLSCAASGFTFSVYWMGWFRQAPGKEREFVAAISRSGTLKEYADSVKGRFTISADNSKNTAYLQMNSLKPEDTAVYYCARGSGWPKIHFDYWGQGTLVTVSS
notes: VHH-Fc
B35: TIGIT-SC147 (Fc fusion)
VHH: EVQLVESGGGLVQPGGSLRLSCAASGTITSAVFMGWFRQAPGKEREFVAAVIWRGGSLKSYADSVKGRFTISADNSKNTAYLQMNSLKPEDTAVYYCAKLAVAGNYYYYGMDVWGQGTLVTVSS
notes: VHH-Fc

Target: T1, human TIGIT-Fc
Experiment: CD155 competition ELISA, single point; also: test concentration or dose not given here
Procedure: TIGIT/CD155 inhibition of VHH-Fcs were assessed using an ELISA assay (Table 10B). Briefly, human TIGIT-Fc was coated on a plate & then incubated with VHH-Fcs and human CD155-biotin. Bound CD155-biotin was detected using a streptavidin-HRP conjugate visualized with TMB. Strong inhibitors from the single point screen were titrated to determine EC50 (Table 10C).

Binder	OD (450 nm)
B1	0.532 OD
B2	0.626 OD
B3	0.451 OD
B4	0.52 OD
B5	0.69 OD
B6	0.51 OD
B7	0.576 OD
B8	0.432 OD
B9	0.279 OD
B10	0.639 OD
B11	0.503 OD
B12	0.472 OD
B13	0.749 OD
B14	0.465 OD
B15	0.449 OD
B16	0.545 OD
B17	0.467 OD
B18	0.633 OD

Binder	OD (450 nm)
B19	0.686 OD
B20	0.607 OD
B21	0.533 OD
B22	0.679 OD
B23	0.708 OD
B24	0.554 OD
B25	0.591 OD
B26	0.328 OD
B27	0.494 OD
B28	0.534 OD
B29	0.328 OD
B30	0.306 OD
B31	0.57 OD
B32	0.507 OD
B33	0.423 OD
B34	0.487 OD
B35	0.878 OD
